{
  "source": "paper PMC10992053",
  "about": "“Rationally introducing non-canonical amino acids to enhance catalytic activity of LmrR for Henry reaction” (Bioresources and Bioprocessing, 2024)",
  "system": "O=Cc1ccc([N+](=O)[O-])cc1",
  "test": "Henry reaction, product by HPLC, Michaelis-Menten fit",
  "type": "biochemical, Lactococcus cremoris",
  "settings": "nitromethane 1 M (excess), 3-18 mM aldehyde, 0.3 mg/mL enzyme, 40 °C, 5 min",
  "description": "Henry reaction, product by HPLC, Michaelis-Menten fit on LmrR (Lactococcal multidrug resistance Regulator)",
  "data": [
    {"substance": "LmrR (Lactococcal multidrug resistance Regulator) (Lactococcus cremoris subsp. cremoris MG1363; V15F)", "values": [
      {"measurement": "Km", "value": 8.28, "unit": "mM"},
      {"measurement": "Vmax", "value": 1960, "unit": "µM/min"},
      {"measurement": "kcat", "value": 1.47, "unit": "s⁻¹"},
      {"measurement": "kcat/Km", "value": 178, "unit": "M⁻¹ s⁻¹"}
    ]}
  ]
}
